{
  "source": "patent US20230093399A1",
  "about": "“METHODS FOR GENERATING PLURIPOTENT STEM CELL-DERIVED BROWN FAT CELLS” (AgeX Therapeutics, Inc., priority 2013, published 2023)",
  "key": {"cell line E75": {"test_system": "cell line E75", "experiment": "Differentiation of cell line E75 in HyStem, gene expression", "format": "cell-based, human", "description": "(§1) HyStem-C (BioTime, Inc. Alameda, Calif.) (BioTime, Alameda, Calif., USA) was reconstituted following the manufacturer's instructions. Briefly, the HyStem component (thiol modified hyaluronan, 10 mg) was dissolved in 1.0 ml degassed deionized water for about 20 minutes to prepare a 1% w/v solution. The Gelin-S component (thiol modified gelatin, 10 mg) was dissolved in 1 ml degassed deionized water to prepare a 1% w/v solution, and PEGDA (PEG diacrylate, 10 mg) was dissolved in 0.5 ml degassed deionized water to prepare a 2% w/v solution. HyStem (1 ml, 1% w/v) was mixed with Gelin-S (1 ml, 1% w/v) immediately before use. Pelleted cells were resuspended in recently prepared HyStem:Gelin-S (1:1 v/v) mix described above. Upon the addition of crosslinker PEGDA, the cell suspension, at a final concentration of 2.0×10^7 cells/ml, was aliquoted at 25 μl aliquot four to five times into each well of 6 well plates (Corning 3516) after partial gelation to form attached beads. Following complete gelation (20 minutes), chondrogenic medium was added to each well (i.e about 4 ml/each well of a 6 well plate). […]\nThe Gelin-S® component (10 mg of thiol-modified gelatin (BioTime)) is dissolved in 1.0 ml of degassed deionized water to prepare a 1% w/v solution, and polyethylene glycol diacrylate (10 mg of PEGDA) is dissolved in 0.5 ml of degassed deionized water to prepare a 2% w/v solution. […] At the desired time point, hydrogel constructs were either fixed and processed for immunohistochemical analysis or lysed using RLT (Qiagen, CA, USA) with 1% beta-mercaptoethanol for total RNA to analyze transcript expression using quantitative real-time PCR (qRT-PCR) and/or whole-genome microarray.\nTotal RNA was extracted directly from cells growing in 6-well plates or 10 cm tissue culture dishes using Qiagen RNeasy mini kits according to the manufacturer's instructions. RNA concentrations were measured using a Beckman DU530 or Nanodrop spectrophotometer and RNA quality was determined by denaturing agarose gel electrophoresis or using an Agilent 2100 bioanalyzer. […] The cRNA was hybridized to Illumina BeadChips, processed, and read using a BeadStation array reader according to the manufacturer's instructions (Illumina, San Diego, Calif., USA)."}, "cell line E163": {"test_system": "cell line E163", "experiment": "Differentiation of cell line E163 in HyStem, gene expression", "format": "cell-based, human", "settings": "E163 passage 12; 21 days in HyStem with 10 ng/mL BMP4", "description": "as §1"}},
  "data": [
    {"molecule": "BMP4: Bone Morphogenetic Protein 4, TGF-beta superfamily member (protein, UniProt P12644 293-408, looked up) Bone morphogenetic protein 4: SPKHHSQRARKKNKNCRRHSLYVDFSDVGWNDWIVAPPGYQAFYCHGDCPFPLADHLNSTNHAIVQTLVNSVNSSIPKACCVPTELSAISMLYLDEYDKVVLKNYQEMVVEGCGCR", "values": [
      {"measurement": "ameloblastin (AMBN) expression", "setting": "cell line E75; E75, 21 days HyStem, BMP4 and TGFβ3", "result": "expressed the additional marker normally associated with enamel called ameloblastin"},
      {"measurement": "markers normally associated with enamel, enamelin (ENAM) and amelogenin (AMELX)", "setting": "cell line E75; E75, HyStem in the presence of BMP4 and TGFβ3", "result": "expressed the markers normally associated with enamel"},
      {"measurement": "adipocyte markers FABP4 and CD36 and candidate BAT cell progenitor markers such as C19orf80", "setting": "cell line E75; E75 passage 11, 21 days in HyStem with 10 ng/mL BMP4", "result": "relatively high levels"},
      {"measurement": "markers of endochondral ossification including COL2A1, ALPL, IBSP, and osteopontin (SPP1)", "setting": "cell line E75; E75 passage 11, 21 days in HyStem with 10 ng/mL TGFβ3 together with BMP4 (10 ng/mL) or BMP2 (50 ng/mL)", "result": "relatively high levels"},
      {"measurement": "adipocyte markers FABP4 and CD36 and candidate BAT cell progenitor markers such as C19orf80", "setting": "cell line E163", "result": "relatively high levels"}
    ]}
  ]
}
